One block for each binder: values may come before it.
Key:
mouse PCSK9 [1] = molecular target: T1, mouse PCSK9 (mouse, UniProt Q80W65 35-694, limits assumed); assay: BIAcore solution equilibrium
T1 construct: biotinylated, tag not mentioned, in the hybridoma screen; also called mPCSK9-8xHIS; mPCSK9

mouse PCSK9 [2] = molecular target: T1, mouse PCSK9; assay: BIAcore, antibody immobilised, pH 7.4
Method: Briefly, the surface plasmon resonance experiments were performed using Biacore 2000 optical biosensors (Biacore, GE Healthcare, Piscataway, N.J.). […] The concentration of PCSK9 protein was varied at 2 fold intervals (the analyte) and was injected over the immobilized antibody surface (at a flow rate of 100 μl/min for 1.5 minutes).
Antibody binding kinetic parameters including kₐ (association rate constant), kd (dissociation rate constant), and KD (dissociation equilibrium constant) were determined using the BIA evaluation 3.1 computer program (BIAcore, Inc. Piscataway, N.J.).

mouse PCSK9 [3] = molecular target: T1, mouse PCSK9; assay: KinExA solution equilibrium
From the text: Equilibrium dissociation constant (KD) were obtained from nonlinear regression of the two sets of competition curves using a one-site homogeneous binding model. The KinExA® Pro software was employed in the analysis.

Kd (mouse PCSK9 [1]): 17 nM
Kd (mouse PCSK9 [2]): 460 nM
B1: 21B12, anti-PCSK9 huIgG4 (antibody, V domains shown)
VH: QVQLVQSGAEVKKPGASVKVSCKASGYTLTSYGISWVRQAPGQGLEWMGWVSFYNGNTNYAQKLQGRGTMTTDPSTSTAYMELRSLRSDDTAVYYCARGYGMDVWGQGTTVTVSS
VL: QSALTQPASVSGSPGQSITISCTGTSSDVGGYNSVSWYQQHPGKAPKLMIYEVSNRPSGVSNRFSGSKSGNTASLTISGLQAEDEADYYCNSYTSTSMVFGGGTKLTVLQ
notes: from hybridoma; also called 21B12 IgG4; 21B12.1

Kd (mouse PCSK9 [3]): 0.223 nM
Kd (mouse PCSK9 [2]): 6.4 nM
B2: 16F12, anti-PCSK9 huIgG4 (antibody, V domains shown)
VH: QVHLVESGGGVVQPGRSLRLSCAASGFTFNSFGMHWVRQAPGKGLEWVALIWSDGSDEYYADSVKGRFTISRDNSKNTLYLQMNSLRAEDTAVYYCARAIAALYYYYGMDVWGQGTTVTVSS
VL: QSVLTQPPSVSAAPGQKVTISCSGSSSNIGNNFVSWYQQLPGTAPKLLIYDYNKRPSGIPDRFSGSKSGTSATLGITGLQTGDEADYYCGTWDSSLSAYVFGTGTRVTVLQ
notes: from hybridoma; also called 16F12 IgG4; 16F12.1

From patent US20130072665A1 (Amgen, published 2013)
